The target in assay [1] is T1, endogenous human CD45 at the cell-surface (Homo sapiens, UniProt P08575-4).
T1 construct: human CD45 as expressed on NK cell-lines and CD8+ T cells; also called endogenous CD45; source: endogenous, on YTS and NK92 cells and on primary human CD8+ T cells
Description: flow cytometry on cells; nanobodies incubated with YTS or NK92 cells (CD45+) or Expi293F cells (CD45-); detected with anti-VHH-Alexa Fluor 647. The note with it: one partner purified. (In general: Flow cytometry measures light scatter and fluorescence of single cells or particles in a stream.)

Assay [2] addresses T2, recombinant fragment of the d1 and d2 domains of human CD45 linked to an AviTag (Homo sapiens, biotin (site-specific, on the AviTag)).
T2 construct: human CD45, extracellular domains d1 and d2; Glycosylated; Construct limits may be in the supplementary Methods; also called CD45d1d2; biotinylated human CD45 domains 1 and 2; source: Expi293F cells, purified
T2 chain: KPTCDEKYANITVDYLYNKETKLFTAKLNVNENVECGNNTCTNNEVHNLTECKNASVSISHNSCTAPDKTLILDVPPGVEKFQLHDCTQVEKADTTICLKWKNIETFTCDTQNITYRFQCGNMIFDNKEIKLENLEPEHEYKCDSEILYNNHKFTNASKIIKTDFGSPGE
As to the kind of experiment: ELISA; nanobodies coated on a plate, incubated with the indicated concentration of biotinylated CD45d1d2; colorimetric detection, absorbance at 450 nm. The settings on record: both partners purified. Background: An ELISA detects its analyte on a solid surface through an enzyme-linked reagent.

The source of these data is paper doi:10.1101/2025.06.14.659678, “NanoBondy reacting through NeissLock anhydride allows covalent immune cell decoration” (bioRxiv, 2025).

T1 sequence (P08575 26-1306): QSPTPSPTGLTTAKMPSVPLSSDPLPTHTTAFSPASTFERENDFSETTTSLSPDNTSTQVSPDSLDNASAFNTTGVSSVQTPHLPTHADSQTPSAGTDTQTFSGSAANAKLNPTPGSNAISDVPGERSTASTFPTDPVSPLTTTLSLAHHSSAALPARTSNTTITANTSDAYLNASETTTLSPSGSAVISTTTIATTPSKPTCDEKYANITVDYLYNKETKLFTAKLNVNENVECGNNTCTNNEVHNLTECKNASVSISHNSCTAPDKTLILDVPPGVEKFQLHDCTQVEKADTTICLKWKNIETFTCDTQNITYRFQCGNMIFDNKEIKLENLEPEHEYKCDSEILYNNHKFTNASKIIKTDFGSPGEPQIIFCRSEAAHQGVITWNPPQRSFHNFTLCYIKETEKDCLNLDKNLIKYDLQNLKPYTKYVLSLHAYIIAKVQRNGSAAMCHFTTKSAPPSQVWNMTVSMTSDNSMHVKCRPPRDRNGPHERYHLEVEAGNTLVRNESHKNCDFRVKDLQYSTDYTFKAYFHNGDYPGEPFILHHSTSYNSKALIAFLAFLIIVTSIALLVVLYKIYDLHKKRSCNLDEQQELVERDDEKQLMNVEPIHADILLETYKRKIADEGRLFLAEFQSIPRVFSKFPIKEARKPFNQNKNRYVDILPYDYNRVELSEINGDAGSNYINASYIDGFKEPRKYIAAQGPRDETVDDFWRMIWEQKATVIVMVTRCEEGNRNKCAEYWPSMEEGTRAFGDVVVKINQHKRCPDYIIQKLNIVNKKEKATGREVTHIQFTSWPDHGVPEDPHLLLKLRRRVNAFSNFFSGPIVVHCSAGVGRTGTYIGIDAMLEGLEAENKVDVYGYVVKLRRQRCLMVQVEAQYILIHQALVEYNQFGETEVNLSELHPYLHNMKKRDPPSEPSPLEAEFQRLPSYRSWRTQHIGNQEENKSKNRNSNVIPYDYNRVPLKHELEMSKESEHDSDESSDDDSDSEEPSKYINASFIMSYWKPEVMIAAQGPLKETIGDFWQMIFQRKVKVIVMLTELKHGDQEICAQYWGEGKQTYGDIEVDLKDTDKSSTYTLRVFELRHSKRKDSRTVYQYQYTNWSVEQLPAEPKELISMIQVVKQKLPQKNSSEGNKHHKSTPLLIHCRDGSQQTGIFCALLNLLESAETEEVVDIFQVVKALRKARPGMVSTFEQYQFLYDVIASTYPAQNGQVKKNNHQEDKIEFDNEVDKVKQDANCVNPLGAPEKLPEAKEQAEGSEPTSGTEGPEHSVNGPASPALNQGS

B1: anti-CD45 nanobody 2H5 with C-terminal SpyTag003 (VHH)
VHH: QVQLQESGGGLVQTGGSLTLSCVASGGTFSSYAMGWFRQAPGKEREFVAAIGGSGDSTYYADSVKGRFTISRDNAKNSVYLQMNSLKPEDTAVYYCQADPTMFHKLYYGINPNEYDYWGQGTLVTVSS
notes: constructs are in the supplementary Methods; also called 2H5 nanobody
Turning to B1, the binding result in assay [1] and in assay [2] was “binds” each time.
